Data from article PMC6362314, “Both a Unique Motif at the C Terminus and an N-Terminal HEAT Repeat Contribute to G-Quadruplex Binding and Origin Regulation by the Rif1 Protein” (Molecular and Cellular Biology, 2018).

B1: Rif1 C-terminal 272-aa polypeptide (aa 1129 to 1400), wild type (domain or fragment, S. pombe, UniProt Q96UP3 1129-1400, looked up)
chain: KIDETKNEATDMEESLTTPSGKVNKEVIVDDTSLRDEAIVPDKAIDVADNSNALLKENISSQSNRKADNNGTPSVNNSFTTANNDECSKENSQIEPEGQTASREGVLSTPRSTRKKRKLGRKSQSSNVNKEVAISEVSATLENVEVIERHGISEQGQNLDESACVLTNESSLSQTEIPEEKTENETTAVNGFENSKKRQFSSLLSGSIDTNNESNKVSSVEFDKSGPQDIIQSMTEATFEIEKNIQDLKSEEVQKLSDLLMRLQRAILSRIA
notes: Rif1, fission yeast (S. pombe), 1,400 amino acids; C-terminal polypeptides were also made in 293T cells (N-terminal His6, C-terminal Flag3); also called Rif1(aa1129-1400); C-terminal polypeptide; source: E. coli, purified (nickel column, Mono Q column if necessary)
B2: Rif1 C-terminal 148-aa polypeptide (aa 1253 to 1400) (domain or fragment, S. pombe, UniProt Q96UP3 1253-1400, looked up)
chain: SSNVNKEVAISEVSATLENVEVIERHGISEQGQNLDESACVLTNESSLSQTEIPEEKTENETTAVNGFENSKKRQFSSLLSGSIDTNNESNKVSSVEFDKSGPQDIIQSMTEATFEIEKNIQDLKSEEVQKLSDLLMRLQRAILSRIA
notes: Rif1, fission yeast (S. pombe), 1,400 amino acids; residues 1253-1400; source: E. coli, purified (nickel column, Mono Q column if necessary)
B3: Rif1 C-terminal 229-aa polypeptide (aa 1172 to 1400) (domain or fragment, S. pombe, UniProt Q96UP3 1172-1400, looked up)
chain: AIDVADNSNALLKENISSQSNRKADNNGTPSVNNSFTTANNDECSKENSQIEPEGQTASREGVLSTPRSTRKKRKLGRKSQSSNVNKEVAISEVSATLENVEVIERHGISEQGQNLDESACVLTNESSLSQTEIPEEKTENETTAVNGFENSKKRQFSSLLSGSIDTNNESNKVSSVEFDKSGPQDIIQSMTEATFEIEKNIQDLKSEEVQKLSDLLMRLQRAILSRIA
notes: Rif1, fission yeast (S. pombe), 1,400 amino acids; residues 1172-1400; source: E. coli, purified (nickel column, Mono Q column if necessary)
B4: Rif1 C-terminal 91-aa polypeptide (aa 1310 to 1400) (domain or fragment, S. pombe, UniProt Q96UP3 1310-1400, looked up)
chain: TENETTAVNGFENSKKRQFSSLLSGSIDTNNESNKVSSVEFDKSGPQDIIQSMTEATFEIEKNIQDLKSEEVQKLSDLLMRLQRAILSRIA
notes: Rif1, fission yeast (S. pombe), 1,400 amino acids; residues 1310-1400; also called C-terminal 91 amino acids; source: E. coli, purified (nickel column, Mono Q column if necessary)

Molecular target: the molecule itself
Test: native gel or EMSA; purified Rif1 C-terminal polypeptides on a native protein gel (5% to 20% gradient gel), CBB staining; self-association

Stoichiometry N, ≤ 16 subunits:
B1, B2, B3, B4
